These results are taken from the supplement of paper PMC9170038.

The data set deals with MS2 coat protein. Put plainly: apparent KD of MS2 coat protein; designed switch direction (-1 OFF switch, 1 ON switch): -1; higher = weaker reporter binding. In short, it runs like this: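 The buffer was Tris-HCl pH 7.5 with KCl, MgCl2, BSA, DTT, tRNA and Tween-20. In it, SNAP-549-labelled MS2 coat protein was titrated in doubling steps from 0.7 or 1.5 nM to 3 µM over chip-bound RNA switches transcribed by stalled E. coli RNA polymerase on Illumina chips. Apparent KD is the per-design median over clusters of curve fits to normalised fluorescence.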

[1] abbreviates: Eterna round: R95, input ligand: FMN 200 uM.
Where [2] appears, read: Eterna round: R95, input ligand: microRNA oligo, concentration not stated.
Setting [3] is: Eterna round: R95, input ligand: none.
The mark [4] stands for this setting: input ligand: microRNA oligo, concentration not stated.

As to “GAAAUGGUAGGAUAUACGAAAAAAAAGGGUAGAAAAAAAACACAUGAGGAUCACCCAUGUAGAAGGACCAAAAG [salish99_ex2_r3_088] (puzzle: Exclusion 2)”, the “apparent KD of MS2 coat protein” value under setting [1] was found to be 0.0714 µM, the “apparent KD of MS2 coat protein” value under setting [2] is 0.0319 µM and the “apparent KD of MS2 coat protein” value under setting [3] was 0.0284 µM.

For the sequence “GAACUAAGGCAAAGCUUUAGUCGUACAUGAGGAUCACCCAUGUAGGAUAUGGUAGGCAAAGCAUACCAGAAGGACAGAGUGAUC [Mat - Exclusion NG 3 - Mod of JL - D62] (Eterna round: R96, puzzle: Exclusion NG 3)”, the “apparent KD of MS2 coat protein” value is 0.387 µM (input ligand: FMN 200 uM), 0.363 µM under setting [4] and 0.22 µM (input ligand: none).

Turning to “GAAGAAAAGGCAGGAUAUCAGAAACACAUGAUAAGGAGAUGCAACAUGAGGAUCACCCAUGUAAAUGAGAAGGGCCGCCCUUCC [Arbiis] (Eterna round: R96, puzzle: Exclusion NG 2)”, under setting [4], the “apparent KD of MS2 coat protein” value worked out at 0.028 µM.

In the case of “GAAGAUCGAGUUAGGAUAUGAUUACUAUCCGAAAAUCAGAAGGAACUUGAGGAUCACCCAAGUAAAGAAGAAAU [JR_BMEx4_Sub051] (Eterna round: R97, puzzle: Brourd's mod of Exclusion 4)”, the “apparent KD of MS2 coat protein” value runs as follows: (input ligand: FMN 200 uM) 0.0229 µM; (input ligand: none) 0.0165 µM.

In the case of “GAAGAUCGAGUUAGGAUAUGAUUACUAUCCGAAAAUCAGAAGGAACUUGAGGAUCACCCAAGUUUAGAAGAAAU [JR_BMEx4_Sub052] (Eterna round: R97, puzzle: Brourd's mod of Exclusion 4)”, the “apparent KD of MS2 coat protein” value came to 0.0182 µM (input ligand: FMN 200 uM) and 0.0147 µM (input ligand: none).

“GAAUAACAAGUGAGGAUAUGGAGUUGGGAGCCAGUUCAGAAGGCACAUGAGGAUCACCCAUGUGAACCGCAGCU [Eternabot (L2) Solution 45] (Eterna round: R97, puzzle: Brourd's mod of Exclusion 4)”: the “apparent KD of MS2 coat protein” value by setting is: (input ligand: FMN 200 uM) 0.0169 µM; (input ligand: none) 0.0145 µM.

Take “GAAUAGAGAGGAUAUGCGUAGUAGGUAGUAAGAUAUAUCUGACAUGAGGAUCACCCAUGUAGAAGGCUCAGAUC [EX2 #3] (Eterna round: R97, puzzle: Exclusion 2)”: the “apparent KD of MS2 coat protein” value reads like this: (input ligand: FMN 200 uM) 0.0401 µM; (input ligand: none) 0.0352 µM.

As to “GAAUAGCGAGGAUAUGCAAUGAAGAUCGUACGAUAUGGCUGACAUGAGGAUCACCCAUGUAGAAGGCGCUGAUC [EX2 #14] (Eterna round: R97, puzzle: Exclusion 2)”, the “apparent KD of MS2 coat protein” value was found to be 0.0551 µM (input ligand: FMN 200 uM) and 0.0537 µM (input ligand: none).

Take “GAAUCGACAGGAUAUACAUGAGGAUCACCCAUGUAGUCAGAGAUGAUACCUCAACCUAGUAGAAGGGUCAGCGG [Eternabot (L2) Solution 17] (Eterna round: R97, puzzle: Exclusion 3)”: the “apparent KD of MS2 coat protein” value is, setting by setting: (input ligand: FMN 200 uM) 0.0455 µM; (input ligand: none) 0.025 µM.

For “GAAUGAGAGCAGGAUAUCUUAUAAAUGUAUGAAAGAGAAGGGCUCACAUGAGGAUCACCCAUGUGGUCCUAGAA [jl-ex6-4.78 jandersonlee mod] (Eterna round: R97, puzzle: Exclusion 6)”, the “apparent KD of MS2 coat protein” value by setting is: (input ligand: FMN 200 uM) 0.506 µM; (input ligand: none) 0.0369 µM.

For “GACAGGGCAGGAUAUCGAGAUCCGCACAUGAGGAUCACCCAUGUUCAGUCGAAAGACUGACGAGAAGGGCCGUGUC [Omei Ex5 E4] (Eterna round: R97, puzzle: Exclusion 5)”, the “apparent KD of MS2 coat protein” value runs as follows: (input ligand: FMN 200 uM) 1.19 µM; (input ligand: none) 1.39 µM.

“GACCCGUCAGGAUAUACAUGAGGAUCACCCAUGUAAUCAGCGAUAGGACAAGGCUCACGUAGAAGGGACAGGGU [Eternabot (L1) Solution 33] (Eterna round: R97, puzzle: Exclusion 3)”: the “apparent KD of MS2 coat protein” value (input ligand: FMN 200 uM) worked out at 0.0446 µM and the “apparent KD of MS2 coat protein” value (input ligand: none) was 0.0228 µM.

Regarding “GACCCUAGGGUCAGAUGCACAAGCUUUUUGCUCGUUUUAACAUGAGGAUCACCCAUGUCUAGUGGAUCUGAUCGGGC [Erorente] (puzzle: Sensor v3, turn-off variant 2)”, the “apparent KD of MS2 coat protein” value under setting [1] came to 0.0206 µM, the “apparent KD of MS2 coat protein” value under setting [2] came to 0.0888 µM and the “apparent KD of MS2 coat protein” value under setting [3] is 0.0182 µM.

As for “GACCGGUAAGGAUAUGUAUCUUUCAGGACACUACCGAAGAUGCAGAAGGUACAUGAGGAUCACCCAUGUGGGCU [Eternabot (L1) Solution 36] (Eterna round: R97, puzzle: Exclusion 4)”, the “apparent KD of MS2 coat protein” value is, setting by setting: (input ligand: FMN 200 uM) 0.227 µM; (input ligand: none) 0.0758 µM.

Regarding “GACCUAUAGGUAGGAUAUCAUUGCGAUUAGCUAUGAGAAGGACCACAUGAGGAUCACCCAUGUCCUCUAAUUAGCCAUUUGGUC [Fiskers ExNg1 - 8] (Eterna round: R96, puzzle: Exclusion NG 1)”, the “apparent KD of MS2 coat protein” value under setting [4] stood at 0.338 µM.

“GACCUUCCUGUAAGGAUAUCCAUGUAUCAAAGCAUGGAGAAGGUACAUGAGGAUCACCCAUGUCACCCGCGUUA (Eterna round: R97, puzzle: Brourd's mod of Exclusion 4)”: the “apparent KD of MS2 coat protein” value by setting is: (input ligand: FMN 200 uM) 0.0177 µM; (input ligand: none) 0.0117 µM.

For the sequence “GACUGCCGAGGAUAUACAUGAGGAUCACCCAUGUGCUUCAGCAUUUAAUAAUGCAUGGGUAGAAGGCGGUAGUC [LRO-Excl3-12] (puzzle: Exclusion 3)”, under setting [2], the “apparent KD of MS2 coat protein” value is 0.0405 µM.

In the case of “GACUGCCGAGGAUAUACAUGAGGAUCACCCAUGUGCUUCAGCAUUUUUUAAUGCAUGGGUAGAAGGCGGUAGUC [LRO-Excl3-13] (puzzle: Exclusion 3)”, the “apparent KD of MS2 coat protein” value under setting [2] was determined as 0.0296 µM.

Regarding “GACUGGACGUGGUCUGGUUACAUGAGGAUCACCCAUGUAGGUCUAAGAACAUGCCUUUUGUACGCUCGUCUUAUAUA [JR_SV3TOV1_Sub065] (puzzle: Sensor v3, turn-off variant 1)”, the “apparent KD of MS2 coat protein” value is, setting by setting: under setting [1], 0.0379 µM; under setting [2], 0.0207 µM; under setting [3], 0.0396 µM.

Take “GACUUCUCUGAGGAUAUUGCAUCAUACGAUAAAUAAGAAGGCAGAACAUGAGGAUCACCCAUGUGGGUUUCAAG [Bingo-Bango-34] (Eterna round: R97, puzzle: Exclusion 6)”: the “apparent KD of MS2 coat protein” value runs as follows: (input ligand: FMN 200 uM) 0.17 µM; (input ligand: none) 0.0814 µM.

As to “GACUUCUCUGAGGAUAUUGCAUCAUACGAUAAAUAAGAAGGCAGAACAUGAGGAUCACCCAUGUGGGUUUUUAG [Bingo-Bango-32] (Eterna round: R97, puzzle: Exclusion 6)”, the “apparent KD of MS2 coat protein” value runs as follows: (input ligand: FMN 200 uM) 0.135 µM; (input ligand: none) 0.0686 µM.

As for “GACUUCUGAGGAUAUACAUAGAUUUACAUGAGGAUCACCCAUGUUCCUCUAUGUAUAAAUGUAGAAGGCAGAAGAU [Mat - Exclusion 5 - JL Mod - D66] (Eterna round: R97, puzzle: Exclusion 5)”, the “apparent KD of MS2 coat protein” value came to 0.0738 µM (input ligand: FMN 200 uM) and 0.0132 µM (input ligand: none).

For the sequence “GACUUGUCAGGAUAUCUUACAUUAACAUCGUAGUUACCGUUGGAGAAGGGACAUGAGGAUCACCCAUGUUUGGC [tap-tap-tappy25] (Eterna round: R97, puzzle: Exclusion 4)”, the “apparent KD of MS2 coat protein” value reads like this: (input ligand: FMN 200 uM) 0.0418 µM; (input ligand: none) 0.0287 µM.

Consider “GAGAAACAUGAGGAUCACCCAUGUAAGGAUAUGGCGAGAGCUGGAGUACUAGCGCCGUUCAGAAGGUACAUGAG [Eternabot (L2) Solution 27] (Eterna round: R97, puzzle: Exclusion 1)”, for which the “apparent KD of MS2 coat protein” value by setting is: (input ligand: FMN 200 uM) 0.218 µM; (input ligand: none) 0.0959 µM.

For the sequence “GAGAACUGAGGAUAUACAUGAGGAUCACCCAUGUUAAGAAGAUAGUAUUGAUGGUUCUGUAGAAGGCAGAGAGA [JR_Ex3_Sub066] (Eterna round: R97, puzzle: Exclusion 3)”, the “apparent KD of MS2 coat protein” value (input ligand: FMN 200 uM) came to 0.0345 µM and the “apparent KD of MS2 coat protein” value (input ligand: none) was determined as 0.0308 µM.

With “GAGAAGGUAGGAUAUACGAAGAAAGAGGGUAGGAAUAAGACACAUGAGGAUCACCCAUGUAGAAGGACCAAGAG [Mat - Exclusion 2 - Mod of my Tesla design - D49] (puzzle: Exclusion 2)”, the “apparent KD of MS2 coat protein” value amounted to 0.0324 µM under setting [1], 0.0212 µM under setting [2] and 0.0229 µM under setting [3].

“GAGAAGUGAGGAUAUGCGAUAAGGAUGAAAGGAAGGAAUGAGUAGAAGGCACAUGAGGAUCACCCAUGUAGAGU [JR_Exclu4_Sub080] (puzzle: Exclusion 4)”: the “apparent KD of MS2 coat protein” value reads like this: under setting [1], 0.0253 µM; under setting [2], 0.0213 µM; under setting [3], 0.021 µM.

For “GAGAGACGAGGAUAUGCAGGAGUGCAGUCAGGUUCCAAAAUACAUGAGGAUCACCCAUGUAGAAGGUGUCAUCU [Eternabot (L2) Solution 26] (Eterna round: R97, puzzle: Exclusion 2)”, the “apparent KD of MS2 coat protein” value runs as follows: (input ligand: FMN 200 uM) 0.0166 µM; (input ligand: none) 0.0156 µM.

As to “GAGAGAGACAUAGGAUAUUCACCCACACAUGAGGAAGAAGGAUGUAGACAUGAGGAUCACCCAUGUGGAUCACCCAUGUUUGUG [All by luck] (Eterna round: R96, puzzle: Exclusion NG 1)”, the “apparent KD of MS2 coat protein” value by setting is: (input ligand: FMN 200 uM) 0.022 µM; under setting [4], 0.0121 µM; (input ligand: none) 0.0247 µM.

As to “GAGAUACAUGAGGAUCACCCAUGUGAGGAUAUGAGCACGCCGGUGACGGUGAUAAGAAUCAGAAGGCACAAUGG [Mat - Exclusion 1 - JL Mod - D31] (Eterna round: R97, puzzle: Exclusion 1)”, the “apparent KD of MS2 coat protein” value reads like this: (input ligand: FMN 200 uM) 0.339 µM; (input ligand: none) 0.453 µM.

Regarding “GAGAUGUGAGGAUAUCUAGACCGCGAAAGAGCCGCGGUCCGAGAGAAGGCACAUGAGGAUCACCCAUGUGAUGA [Tiesri] (puzzle: Exclusion 4)”, the “apparent KD of MS2 coat protein” value under setting [2] was determined as 0.0394 µM.

As to “GAGCAGUGAGGAUAUACAUGAGGAUCACCCAUGUAAUGGUAGUCGGGAUUAAUUUGGUGUAGAAGGCGCUUAUU [JR_Ex3_Sub021] (Eterna round: R97, puzzle: Exclusion 3)”, the “apparent KD of MS2 coat protein” value is, setting by setting: (input ligand: FMN 200 uM) 0.064 µM; (input ligand: none) 0.0799 µM.
